The assay addresses Mcx1-3xFLAG, wildtype, purified recombinant (S. cerevisiae) (UniProt P38323). The assay can be described thus: co-IP.

Sequence of Mcx1-3xFLAG, wildtype, purified recombinant (S. cerevisiae) (P38323 14-520): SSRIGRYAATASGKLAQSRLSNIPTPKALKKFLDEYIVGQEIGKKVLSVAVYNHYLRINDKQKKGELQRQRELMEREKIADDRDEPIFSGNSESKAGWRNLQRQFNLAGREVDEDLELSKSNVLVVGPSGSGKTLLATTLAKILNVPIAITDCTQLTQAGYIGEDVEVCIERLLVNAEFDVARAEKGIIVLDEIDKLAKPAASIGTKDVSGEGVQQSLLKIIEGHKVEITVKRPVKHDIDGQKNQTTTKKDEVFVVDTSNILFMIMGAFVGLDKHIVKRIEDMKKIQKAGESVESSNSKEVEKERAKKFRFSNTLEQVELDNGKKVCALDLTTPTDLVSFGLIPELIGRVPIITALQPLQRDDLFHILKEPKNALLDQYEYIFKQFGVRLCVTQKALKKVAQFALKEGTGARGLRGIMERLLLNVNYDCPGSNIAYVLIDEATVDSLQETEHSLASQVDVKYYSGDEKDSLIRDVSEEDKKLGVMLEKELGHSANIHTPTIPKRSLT

“apoHem1 (PLP-free Hem1, yeast ALA synthase), purified recombinant (from UniProt P09950 23-548) (enzyme)”: the fold amount bound relative to holoHem1 came out at 10 fold.

The values above are taken from publication PMC4467794.
